Results taken from US9175053B2, “Chemical preparation of ubiquitin thioesters and modifications thereof” (BEN-GURION UNIVERSITY OF THE NEGEV RESEARCH AND DEVELOPMENT …, priority 2010, dated 2015).
“Also recorded” adds a separate entry of the source.

Molecular target: T1, recombinant human ubiquitin C-terminal hydrolase L3 (UCH-L3) (Homo sapiens, UniProt P15374)
T1 construct: purchased Aldrich
T1 sequence (P15374 1-230): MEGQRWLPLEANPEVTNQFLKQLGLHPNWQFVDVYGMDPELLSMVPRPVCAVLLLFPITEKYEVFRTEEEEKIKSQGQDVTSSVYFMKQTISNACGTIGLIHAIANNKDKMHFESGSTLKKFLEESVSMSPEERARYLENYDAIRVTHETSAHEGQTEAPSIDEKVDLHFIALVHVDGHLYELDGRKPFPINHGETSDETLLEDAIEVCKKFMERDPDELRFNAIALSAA
Experiment: Enzymatic cleavage of isopeptide by ubiquitin C-terminal hydrolase UCH-L3
Assay type: biochemical
Conditions: ~100 μM peptide, 12 hours at 37° C., Tris/NaCl/DTT buffer
Protocol: Purified peptide 8 was dissolved in 482 μL of assay buffer (50 mM Tris, 150 mM NaCl, 1 mM DTT, pH 7.5) to a final concentration of ˜100 μM and reacted with recombinant human ubiquitin C-terminal hydrolase L3 (UCH-L3, Aldrich). 10 μg of UCH-L3 in 15.5 μL of assay buffer containing 50 mM Tris, 150 mM NaCl, 12 mM DTT, pH 8.0 was incubated for 20 minutes at 25° C. To the reduced UCH-L3 was then added 8 in 187 μL. […] The reaction was analyzed using C-4 analytical RP-HPLC employing a gradient of 10-60% B for 30 minutes, in order to identify the hydrolysis.

## 8: α-synuclein(1-17) model peptide ubiquitylated with synthetic Ub-SR via mercaptolysine, then desulfurized (Scheme 6) [Peptide 8]
  hydrolysis of the ubiquitylated peptide by UCH-L3 (RP-HPLC): UCH-L3 substrate; also recorded: complete hydrolysis
